# Experimental data reported in publication PMC7665024, “Anti-apoptotic BCL-2 regulation by changes in dynamics of its long unstructured loop” (Communications Biology, 2020).
# “Also recorded” adds a separate entry of the source.
# B1: EEE (protein)
# chain: MAHAGRTGYDNREIVMKYIHYKLSQRGYEWDAGDVGAAPPGAAPAPGIFSSQPGHTPHPAASRDPVAREEPLQTPAAPGAAAGPALEPVPPVVHLTLRQAGDDFSRRYRRDFAEMSSQLHLTPFTARGRFATVVEELFRDGVNWGRIVAFFEFGGVMCVESVNREMSPLVDNIALWMTEYLNRHLHTWIQDNGGWDAFVELYGPSMRPLFDFSWLSL
# modifications: Pacific Blue (maleimide) on the native cysteine 158; left off: His6, C-terminal, state not stated
# What was measured:
# [1] = tested on: BCL-2 (EEE or WT):BimBH3, BAX-induced MOMP; experiment: Cytochrome c release assay at varying amount of ABT-199; assay type: biochemical, mouse
# Method: (§1) Fig. 2 In vitro assays for evaluating BCL-2 activity. a Cytochrome c release assay with various BCL-2 mutants at varying concentrations. All of the release amounts are normalized to the result caused by the BimBH3-induced BAX activation (lane 3). […] GUVs provide a MOM-like environment devoid of endogenous mitochondrial proteins.
# The cytochrome c release assays were performed at varying amounts of ABT-199.
# A Dounce homogenizer was used with 20 strokes to homogenize mouse liver tissue (0.2 mg). The mitochondria fraction was separated using centrifugation according to the Mitochondria Isolation Kit (Thermo Scientific). Mitochondria Assay Buffer A (MAB A) (200 mM mannitol, 68 mM sucrose, 10 mM HEPES, 110 mM KCl, 1 mM EDTA, […], 0.1% BSA, protease inhibitor) was used to wash the mitochondria fraction, followed by centrifugation at 12,000 × g. The pellet was collected and resuspended using enough MAB B (i.e., MBA A without 0.1% BSA) and then quantified by bradford assay (Bio-Rad) to yield a final protein content of the mitochondrial fraction ~3 mg/mL. […] Quantification of IB was done using ImageJ software (version 1.49, NIH). The fraction of cytochrome c released (%) is calculated by (I–I0)/(Imax–I0)×100%, where Imax and I0 are the analyzed intensities of cytochrome c with and without activated BAX, respectively. […]
# BCL-2-dependent tumors = conditions: cited from earlier work
# Excerpt: It is worth noting that the binding groove is also responsible for the engagement of an orally bioavailable small molecule ABT-199 (Venetoclax)[8],[13]. […] ABT-199 can displace the bound pro-apoptotic activator from the groove of BCL-2 efficiently and, consequently, cause the release of pro-apoptotic activators, promoting MOMP and apoptosis. This study will use ABT-199 to examine whether the BCL-2 mutants studied here have the same response as FL-BCL-2 to ABT-199.
# [2] = tested on: BAX-induced MOMP, isolated mitochondria; experiment: In vitro cytochrome c release assay, isolated mitochondria (BCL-2 mutants); assay type: biochemical, mouse; conditions: for Cytochrome c release, Average: Bax+BimBH3 = 100, mean of n = 6
# Excerpt: To verify this implication, we performed in vitro cytochrome c release assay using isolated mitochondria. […] Lane 3 (Fig. 2a) is a positive control for the cytochrome c release assays. […] (More experimental results in support of the observed BCL-2 activity are given in Supplementary Fig. 3.)
# as §1
# A Dounce homogenizer was used with 20 strokes to homogenize mouse liver tissue (0.2 mg). The mitochondria fraction was separated using centrifugation according to the Mitochondria Isolation Kit (Thermo Scientific). Mitochondria Assay Buffer A (MAB A) (200 mM mannitol, 68 mM sucrose, 10 mM HEPES, 110 mM KCl, 1 mM EDTA, […], 0.1% BSA, protease inhibitor) was used to wash the mitochondria fraction, followed by centrifugation at 12,000 × g. The pellet was collected and resuspended using enough MAB B (i.e., MBA A without 0.1% BSA) and then quantified by bradford assay (Bio-Rad) to yield a final protein content of the mitochondrial fraction ~3 mg/mL. The final mitochondria fraction was placed on ice for further downstream processing or stored at −80 °C with additional 300 mM trehalose for future use[38]. […] The mixture was then incubated with BAX (0.1 μM) and 10 μL of the mitochondrial fraction ([…]) for 0.5 h at 37 °C. Final volume was adjusted to 30 μL. Following centrifugation at 12,000×g for 10 min, the supernatant was subjected to subsequent immunoblotting (IB). Quantification of IB was done using ImageJ software (version 1.49, NIH). The fraction of cytochrome c released (%) is calculated by (I–I0)/(Imax–I0)×100%, where Imax and I0 are the analyzed intensities of cytochrome c with and without activated BAX, respectively.
# Samples were resolved by SDS–PAGE (15%) and electroblotted onto a 0.45 μm PVDF membrane (GE Healthcare). Primary antibodies used in this study included rabbit anti-BAX N20 (Santa Cruz Biotechnology), mouse anti-BCL-2(C2) (Santa Cruz Biotechnology) and mouse anti-cytochrome c antibodies (clone 7H8.2C12, Millipore). Detection was achieved using sheep anti-mouse IgG HRP (GE Healthcare) and donkey anti-rabbit IgG HRP (GE Healthcare) secondary antibodies. Proteins were visualized by 4CN Plus Chromogenic Substrate (PerkinElmer).
# apoptotic cell death = conditions: phosphomimetic BCL-2; cited from earlier work
# Excerpt: However, the three phosphorylation-related residues are in a 65-residue-long, highly flexible loop domain (denoted by FLD, herein; Fig. 1a) that is often removed for ...
# trypsin = experiment: Limited proteolysis by trypsin; conditions: BCL-2 20 μM, trypsin 0.04-9.44 μM, 1 h, room temperature, SDS-PAGE
# Method: Fig. 3 Structural differences between WT and EEE. a An illustration of mutation sites prepared for spin-labeling ESR studies. b Distance distributions of various double-spin-labeled BCL-2 (WT or EEE) mutants are determined from the experimental DEER data. […] As highlighted, the displacements of α1 and α2 account for the major differences. d An illustration highlighting the positions of α2–α7 and the binding groove. Structures of WT and EEE are colored as in c. Helices α4–α7 change little between the WT and EEE. The displacement of α2 is critical to the change in the local environment of the binding groove. e Limited proteolysis of BCL-2 (20 μM) analyzed on SDS–PAGE. Trypsin concentrations were 0.04, 0.11, 0.34, 1.03, 3.11, 9.44 μM. Incubation time was 1 h at room temperature. It confirms that tertiary conformations of WT versus EEE are indeed different.
# BCL-2 conformational change was assessed by limited proteolysis using trypsin (MERCK). In brief, 5 µg BCL-2 (WT or EEE) was digested at enzyme/substrate ratios ranging from 1:2 to 1:461 for 1 h at room temperature. Proteolysis was quenched by adding 1 mM PMSF, and then samples were confirmed by SDS–PAGE with Coomassie blue staining.
# [3] = BAX 0.1 µM, BimBH3 2 µM, Fig. 2a
Molecule,"effect on cytochrome c release (in words) ([1]; ABT-199 4–30 µM added to pre-incubated BCL-2 (EEE or WT), BimBH3 2 µM, BAX 0.1 µM, mitochondria, Fig. 2b)",displacement of BimBH3 from BCL-2 (in words) ([1]; BCL-2 EEE or WT),inhibition of tumor growth (in words) (BCL-2-dependent tumors),"inhibition of BAX-induced MOMP / cytochrome c release (in words) [2, 3]","capacity to inhibit BAX-induced MOMP compared with S70E and WT (in words) [2, 3]","Cytochrome c release, Average ([2]; BAX+BimBH3 + 2uM BCL-2 protein)","Cytochrome c release, Average ([2]; BAX+BimBH3 + 4uM BCL-2 protein)","Cytochrome c release, Average ([2]; BAX+BimBH3 + 6uM BCL-2 protein)",protection against apoptotic cell death (in words) (apoptotic cell death),susceptibility to trypsin proteolysis (in words) (trypsin)
"CC1(C)CCC(CN2CCN(c3ccc(C(=O)NS(=O)(=O)c4ccc(NCC5CCOCC5)c([N+](=O)[O-])c4)c(Oc4cnc5[nH]ccc5c4)c3)CC2)=C(c2ccc(Cl)cc2)C1 [ABT-199, Venetoclax, reference compound]",the greater the release of cytochrome c was detected,can displace BimBH3 from BCL-2 (either EEE or WT),potently inhibits the growth of BCL-2-dependent tumors,–,–,–,–,–,–,–
BAX: full-length mouse BAX; in FRET the single-cysteine variant BAX136C labeled with AL488 [reference compound],–,–,–,inactive,–,–,–,–,–,–
B1,–,–,–,largely inhibited,evidently greater than those of S70E (lanes 7–9) and WT (lanes 10–12); also recorded: the most potent in inhibiting the BAX-induced MOMP,66.3319,14.0555,8.953,enhanced to protect cells against apoptotic cell death,relatively resistant
